Data reported in patent US20220332804A1 (CSL INNOVATION, published 2022).

Tests used:
Assay in all cases: SPR, KD relative to WT C2;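 also: biacore SPR at 37 °C, anti-C2 mAbs captured via immobilised goat anti-human IgG, C2 alanine or serine surface mutants as analytes, 1:1 model fitted, double-referenced sensograms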
human C2 N467A = biological target: T1, human C2 N467A (human, UniProt P06681 21-752)
T1 sequence: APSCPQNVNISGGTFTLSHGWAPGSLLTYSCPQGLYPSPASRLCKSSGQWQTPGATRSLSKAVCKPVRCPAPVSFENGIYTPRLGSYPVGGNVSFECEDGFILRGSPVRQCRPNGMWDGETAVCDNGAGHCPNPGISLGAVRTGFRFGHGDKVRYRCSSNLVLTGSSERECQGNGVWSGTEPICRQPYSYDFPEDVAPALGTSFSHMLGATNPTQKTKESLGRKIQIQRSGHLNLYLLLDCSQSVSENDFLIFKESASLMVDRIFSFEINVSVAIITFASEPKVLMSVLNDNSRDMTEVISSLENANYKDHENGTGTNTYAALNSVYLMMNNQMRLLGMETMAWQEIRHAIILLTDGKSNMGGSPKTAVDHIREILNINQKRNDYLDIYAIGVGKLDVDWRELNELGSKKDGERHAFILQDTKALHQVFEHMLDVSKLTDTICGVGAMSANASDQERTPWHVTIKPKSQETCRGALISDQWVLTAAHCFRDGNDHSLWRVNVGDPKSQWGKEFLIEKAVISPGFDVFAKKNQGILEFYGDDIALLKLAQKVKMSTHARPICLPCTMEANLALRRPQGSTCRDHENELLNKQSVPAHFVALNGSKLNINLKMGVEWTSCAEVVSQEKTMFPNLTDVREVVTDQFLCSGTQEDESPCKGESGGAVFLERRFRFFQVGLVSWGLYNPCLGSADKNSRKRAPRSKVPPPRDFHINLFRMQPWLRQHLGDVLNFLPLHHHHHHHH

human C2 K244A = biological target: T2, human C2 K244A (human, UniProt P06681 21-752)
T2 sequence: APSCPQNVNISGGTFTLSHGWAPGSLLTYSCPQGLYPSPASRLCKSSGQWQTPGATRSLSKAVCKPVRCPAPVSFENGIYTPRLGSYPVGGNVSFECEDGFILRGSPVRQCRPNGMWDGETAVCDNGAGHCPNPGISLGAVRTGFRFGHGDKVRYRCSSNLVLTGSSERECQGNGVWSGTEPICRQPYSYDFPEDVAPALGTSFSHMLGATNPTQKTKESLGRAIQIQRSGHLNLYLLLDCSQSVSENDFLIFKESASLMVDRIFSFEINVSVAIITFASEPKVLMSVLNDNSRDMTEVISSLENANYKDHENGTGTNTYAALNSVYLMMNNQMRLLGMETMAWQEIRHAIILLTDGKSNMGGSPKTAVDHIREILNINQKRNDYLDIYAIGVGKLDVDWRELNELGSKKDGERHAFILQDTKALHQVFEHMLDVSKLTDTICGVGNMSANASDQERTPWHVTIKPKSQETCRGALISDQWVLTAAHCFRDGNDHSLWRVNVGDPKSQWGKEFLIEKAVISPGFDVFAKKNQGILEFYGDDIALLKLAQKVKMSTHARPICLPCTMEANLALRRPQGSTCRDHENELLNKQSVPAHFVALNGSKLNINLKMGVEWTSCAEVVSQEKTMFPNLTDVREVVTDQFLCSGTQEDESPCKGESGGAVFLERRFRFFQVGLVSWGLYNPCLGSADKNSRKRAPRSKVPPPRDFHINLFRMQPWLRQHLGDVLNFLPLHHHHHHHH

human C2 A472S = biological target: T3, human C2 A472S (human, UniProt P06681 21-752)
T3 sequence: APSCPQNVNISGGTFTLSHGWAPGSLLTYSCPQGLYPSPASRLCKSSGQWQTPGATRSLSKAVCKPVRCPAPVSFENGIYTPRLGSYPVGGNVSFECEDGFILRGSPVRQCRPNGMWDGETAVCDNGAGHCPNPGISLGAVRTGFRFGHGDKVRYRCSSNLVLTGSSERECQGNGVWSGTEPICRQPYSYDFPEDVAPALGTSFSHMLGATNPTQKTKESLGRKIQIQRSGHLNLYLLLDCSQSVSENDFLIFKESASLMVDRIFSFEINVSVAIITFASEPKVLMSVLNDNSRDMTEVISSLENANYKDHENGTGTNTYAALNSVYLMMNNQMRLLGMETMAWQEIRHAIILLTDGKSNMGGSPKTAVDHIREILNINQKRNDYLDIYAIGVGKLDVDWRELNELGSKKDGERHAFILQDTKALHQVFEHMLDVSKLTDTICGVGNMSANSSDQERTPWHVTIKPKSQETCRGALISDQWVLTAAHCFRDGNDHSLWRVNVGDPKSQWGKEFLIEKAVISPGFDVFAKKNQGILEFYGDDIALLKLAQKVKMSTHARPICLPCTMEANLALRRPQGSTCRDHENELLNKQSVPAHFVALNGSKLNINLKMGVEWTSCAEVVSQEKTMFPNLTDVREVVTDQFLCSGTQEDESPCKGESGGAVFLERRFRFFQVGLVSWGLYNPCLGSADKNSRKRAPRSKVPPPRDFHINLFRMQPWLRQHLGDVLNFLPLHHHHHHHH

human C2 G677A = biological target: T4, human C2 G677A (human, UniProt P06681 21-752)
T4 sequence: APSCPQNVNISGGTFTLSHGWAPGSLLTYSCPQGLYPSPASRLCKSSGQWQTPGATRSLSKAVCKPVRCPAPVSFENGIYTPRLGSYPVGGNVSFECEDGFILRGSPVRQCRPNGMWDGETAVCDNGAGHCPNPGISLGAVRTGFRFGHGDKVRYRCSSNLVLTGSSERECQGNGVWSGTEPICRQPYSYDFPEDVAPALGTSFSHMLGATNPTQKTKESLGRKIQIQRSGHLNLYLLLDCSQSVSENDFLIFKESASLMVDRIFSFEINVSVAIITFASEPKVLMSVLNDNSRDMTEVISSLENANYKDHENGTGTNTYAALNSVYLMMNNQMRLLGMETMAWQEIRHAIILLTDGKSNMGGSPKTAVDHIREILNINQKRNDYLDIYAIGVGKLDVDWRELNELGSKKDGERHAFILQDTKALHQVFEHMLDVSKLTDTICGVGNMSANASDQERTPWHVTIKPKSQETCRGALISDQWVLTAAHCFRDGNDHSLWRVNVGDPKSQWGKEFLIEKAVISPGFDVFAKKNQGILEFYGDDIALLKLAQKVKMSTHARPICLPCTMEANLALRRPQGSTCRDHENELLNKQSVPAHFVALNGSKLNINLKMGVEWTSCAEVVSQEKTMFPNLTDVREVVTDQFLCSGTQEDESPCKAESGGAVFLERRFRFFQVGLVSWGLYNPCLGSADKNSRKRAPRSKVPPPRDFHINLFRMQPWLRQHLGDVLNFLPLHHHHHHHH

B1: RF16-226 (antibody, human IgG4 S228P, lambda)
heavy: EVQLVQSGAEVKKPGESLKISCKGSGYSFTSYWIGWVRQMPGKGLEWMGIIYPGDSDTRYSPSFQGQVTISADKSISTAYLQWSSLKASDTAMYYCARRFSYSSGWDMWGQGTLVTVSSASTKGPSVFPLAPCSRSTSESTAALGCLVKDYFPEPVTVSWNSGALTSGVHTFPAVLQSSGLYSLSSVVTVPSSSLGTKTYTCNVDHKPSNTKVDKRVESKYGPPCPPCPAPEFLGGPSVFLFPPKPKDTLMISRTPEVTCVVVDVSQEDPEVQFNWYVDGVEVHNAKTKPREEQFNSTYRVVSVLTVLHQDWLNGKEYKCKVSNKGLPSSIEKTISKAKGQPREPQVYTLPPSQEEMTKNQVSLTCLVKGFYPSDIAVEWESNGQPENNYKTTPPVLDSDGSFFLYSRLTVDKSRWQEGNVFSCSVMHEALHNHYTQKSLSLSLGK
light: SYELTQPPSVSVSPGQTARITCSGDALTSKYVAWYQQKSGLAPLLVIYEDTRRPSGIPAKFSGSSSGSVATLTISGAHGDDEADYYCYSTDASGHQRVFGGGTKLTVLSQPKAAPSVTLFPPSSEELQANKATLVCLISDFYPGAVTVAWKADGSPVKAGVETTKPSKQSNNKYAASSYLSLTPEQWKSHRSYSCQVTHEGSTVEKTVAPTECS
notes: pH-dependent anti-C2 antibody from a phage display library; also called WT
Work on B1 yielded a Fold diff (human C2 N467A) of 2 fold, a Fold diff (human C2 K244A) of 2 fold and a Fold diff (human C2 A472S) of 5 fold. For the same binder, the Fold diff (human C2 G677A) was 1 fold.
